In PMC5187861 one finds response (β-Galactosidase units) data, which are given here for 2 substances.

Holding throughout (experiment): yeast two-hybrid, quantitative β-galactosidase assay
For assay [1], the target named is HK1a cytoplasmic part (HK1a-CP), LexA-based two-hybrid bait. The conditions noted are these: HK1a-CP as bait, HPt as prey, mean of at least four independent assays in triplicate, standard error bars, read off a plot.
In assay [2] the target is HK1a receiver domain (HK1a-RD), LexA-based two-hybrid bait. As to conditions: HK1a-RD as bait, HPt as prey, mean of at least four independent assays in triplicate, standard error bars, read off a plot.
The target of assay [3] is HK1b cytoplasmic part (HK1b-CP), LexA-based two-hybrid fusion. The conditions noted are these: HK1b-CP as bait, HPt as prey, standard error bars, read off a plot.
The target of assay [4] is HK1b receiver domain (HK1b-RD), LexA-based two-hybrid bait. As to conditions: HK1b-RD as bait, HPt as prey, standard error bars, read off a plot.

Take “HPt1, histidine-containing phosphotransfer protein 1 (two-hybrid prey) K33L; R74K; S77A”: the response (β-Galactosidase units) came out at 5.5 in assay [1] (parent: est. 4.2), 33 in assay [2] (parent: est. 19), 3.7 in assay [3] (parent: est. 2.3) and 16 in assay [4] (parent: est. 11).

For “HPt2, histidine-containing phosphotransfer protein 2 (two-hybrid prey) L32K; K73R; A76S”, the response (β-Galactosidase units) was 32 in assay [1] (parent: est. 71), 95 in assay [2] (parent: est. 120), 7 in assay [3] (parent: est. 11) and 210 in assay [4] (parent: est. 240).
